Changes are numbered by the printed parent chain. In names and notes the source's numbering stands. One block for each binder: values may come before it.
Experiments:
hVISTA-ECD 6-His tag [1] = target: T1, hVISTA-ECD 6-His tag (human, UniProt Q9H7M9 33-193); assay: SPR; KD at pH 6.45 over KD at pH 6.0 (head prints 7.4)
T1 construct: also called monovalent hVISTA-ECD; human VISTA

hVISTA-ECD 6-His tag [2] = target: T1, hVISTA-ECD 6-His tag; assay: SPR; kd at pH 6.9 over kd at pH 6.0 (head prints 7.4)
Protocol: (§1) Further binding kinetic experiments were performed at various pHs on VISTA antibodies described herein by SPR as generally described in Example 9 above. Antibodies were normalized to 50 nM concentration in PBST pH 7.4 and captured on a Protein A CM5 chip (ID 4931) by injecting for 45 seconds at a 5 µL/min flow rate. An 8-point human VISTA titration ([…]) was prepared in PBST at pH 7.4, 6.9, 6.45, and 6.0. Titrations were injected over the captured antibodies for 180 seconds at 30 µL/min. Sensorgrams were fit to a 1:1 binding model in T200 evaluation software and the kinetic constants were reported.
(§2) Each table reports the data at one of the four tested pHs (7.4, 6.9, 6.45, and 6.0, respectively). The 8-point hVISTA titration used in these assays was chosen to provide increased confidence in kinetic values reported at neutral pH conditions. A relatively stringent cutoff for non-binding was applied in this assay. Certain progeny of P1-061029 antibody (P1-068757, ‘759, ‘765, ‘771, and ‘775) show no binding to hVISTA at micromolar concentrations at pH 7.4, while ‘761 and ‘767 show no binding to hVISTA at 100 nM at pH 7.4 but do show binding to hVISTA at micromolar concentrations.

hVISTA-ECD 6-His tag [3] = target: T1, hVISTA-ECD 6-His tag; assay: SPR; kd at pH 6.45 over kd at pH 6.0 (head prints 7.4)
Protocol: as §1, §2

hVISTA-ECD 6-His tag [4] = target: T1, hVISTA-ECD 6-His tag; assay: SPR, Ab on Protein A, hVISTA analyte, pH 6.9
Protocol: as §1, §2

hVISTA-ECD 6-His tag [5] = target: T1, hVISTA-ECD 6-His tag; assay: SPR, Ab on Protein A, hVISTA analyte, pH 6.45
hVISTA-ECD 6-His tag [6] = target: T1, hVISTA-ECD 6-His tag; assay: SPR; KD at pH 6.9 over KD at pH 6.0 (head prints 7.4)
Protocol: as §1, §2

hVISTA-ECD 6-His tag [7] = target: T1, hVISTA-ECD 6-His tag; assay: SPR, Ab on Protein A, hVISTA analyte, pH 6.0
hVISTA-ECD 6-His tag [8] = target: T1, hVISTA-ECD 6-His tag; assay: SPR 37 C, Ab on Protein A, pH 6.0
hVISTA-ECD 6-His tag [9] = target: T1, hVISTA-ECD 6-His tag; assay: SPR 37 C, Ab on Protein A, pH 7.4
[10] = target: T2, avidin (ThermoFisher Scientific catalog #21128) (UniProt P02701 25-152); assay: SPR 25C, Ab on Protein A, pH 6 and pH 7.4
T2 construct: pI control protein

[11] = target: T3, BSA (Calbiochem catalog #126593) (UniProt P02769 25-607); assay: SPR 25C, Ab on Protein A, pH 6 and pH 7.4
T3 construct: pI control protein
T3 sequence (P02769 25-607 limits assumed): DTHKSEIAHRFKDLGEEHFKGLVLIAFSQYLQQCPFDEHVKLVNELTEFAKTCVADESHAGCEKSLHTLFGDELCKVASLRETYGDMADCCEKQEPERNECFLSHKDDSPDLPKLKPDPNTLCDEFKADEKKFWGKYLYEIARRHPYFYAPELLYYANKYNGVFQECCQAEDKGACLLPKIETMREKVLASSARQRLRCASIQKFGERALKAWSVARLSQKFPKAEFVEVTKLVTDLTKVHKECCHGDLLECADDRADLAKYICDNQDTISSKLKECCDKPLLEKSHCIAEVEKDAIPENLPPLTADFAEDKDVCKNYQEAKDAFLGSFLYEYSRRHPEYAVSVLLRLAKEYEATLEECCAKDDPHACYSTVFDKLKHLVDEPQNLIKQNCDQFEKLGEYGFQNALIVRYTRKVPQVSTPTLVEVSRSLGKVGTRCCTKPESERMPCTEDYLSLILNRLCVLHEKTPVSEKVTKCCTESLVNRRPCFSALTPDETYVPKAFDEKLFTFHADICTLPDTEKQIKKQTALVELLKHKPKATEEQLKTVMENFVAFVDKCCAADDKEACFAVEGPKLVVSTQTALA

T1 sequence (Q9H7M9 other isoform, or with tags, fused parts or gaps limits assumed): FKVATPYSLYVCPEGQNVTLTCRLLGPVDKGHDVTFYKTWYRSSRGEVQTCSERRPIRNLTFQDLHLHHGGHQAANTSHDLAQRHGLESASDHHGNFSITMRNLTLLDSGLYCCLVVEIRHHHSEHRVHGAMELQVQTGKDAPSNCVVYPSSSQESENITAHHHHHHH
T2 sequence (P02701 25-152 limits assumed): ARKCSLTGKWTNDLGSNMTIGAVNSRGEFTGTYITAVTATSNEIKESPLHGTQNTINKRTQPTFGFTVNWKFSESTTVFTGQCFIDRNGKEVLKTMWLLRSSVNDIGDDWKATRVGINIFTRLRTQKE

7.4 KD/ 6.0 KD (hVISTA-ECD 6-His tag [1]): 4.4 | 7.4 kd/ 6.0 kd (hVISTA-ECD 6-His tag [2]): 4.4 | 7.4 kd/ 6.0 kd (hVISTA-ECD 6-His tag [3]): 1.7 | Kd (hVISTA-ECD 6-His tag [4]): 970 nM | koff (hVISTA-ECD 6-His tag [4]): 0.01 s⁻¹ | kon (hVISTA-ECD 6-His tag [4]): 11000 M⁻¹ s⁻¹ | Kd (hVISTA-ECD 6-His tag [5]): 44 nM | koff (hVISTA-ECD 6-His tag [5]): 0.0039 s⁻¹ | kon (hVISTA-ECD 6-His tag [5]): 90000 M⁻¹ s⁻¹ | 7.4 KD/ 6.0 KD (hVISTA-ECD 6-His tag [6]): 98.2 | Kd (hVISTA-ECD 6-His tag [7]): 9.9 nM | koff (hVISTA-ECD 6-His tag [7]): 0.0023 s⁻¹ | kon (hVISTA-ECD 6-His tag [7]): 240000 M⁻¹ s⁻¹
B2: P1-070976 (41F11_VH_T28P_Y50W_S55E_D95H_L96E_P97E_Y100E; Vk_A64G) (antibody, V domains shown)
VH: QVQLVESGGGLVKPGGSLRLSCAASGFPFSDYYMSWIRQAPGKGLEWVSWISNSGEPIYYADSVKGRFTISRDNAKNSLYLQMNSLRAEDTAVYYCARHEEGWEFDLWGRGTLVTVSS
VL: EIVLTQSPATLSLSPGERATLSCRASQSVSSYLAWYQQKPGQAPRLLIYDASNRATGIPARFSGSGSGTDFTLTISSLEPEDFAVYYCQQRNNWPRTFGQGTKVEIK
notes: They look like Kabat positions on the mature VH, but no numbering scheme is stated; also called P1-070976-11

7.4 KD/ 6.0 KD (hVISTA-ECD 6-His tag [1]): 4.1 | 7.4 kd/ 6.0 kd (hVISTA-ECD 6-His tag [2]): 4.8 | 7.4 kd/ 6.0 kd (hVISTA-ECD 6-His tag [3]): 3.4 | Kd (hVISTA-ECD 6-His tag [4]): 220 nM | koff (hVISTA-ECD 6-His tag [4]): 0.018 s⁻¹ | kon (hVISTA-ECD 6-His tag [4]): 82000 M⁻¹ s⁻¹ | Kd (hVISTA-ECD 6-His tag [5]): 18 nM | koff (hVISTA-ECD 6-His tag [5]): 0.012 s⁻¹ | kon (hVISTA-ECD 6-His tag [5]): 680000 M⁻¹ s⁻¹ | 7.4 KD/ 6.0 KD (hVISTA-ECD 6-His tag [6]): 50 | Kd (hVISTA-ECD 6-His tag [7]): 4.3 nM | koff (hVISTA-ECD 6-His tag [7]): 0.0036 s⁻¹ | kon (hVISTA-ECD 6-His tag [7]): 840000 M⁻¹ s⁻¹
B4: P1-068748 (antibody, human IgG1, kappa, V domains shown)
VH: QVQLVESGGGVVQPGRSLRLSCAASGFTFSHHAMHWVRQAPGKGLEWVAIIWYDGSNDDYADSVKGRFTISRDNSKNTLYLQMNSLRAEDTAVYYCARDSGFYDSYYFDYWGQGTLVTVSS
VL: EIVLTQSPATLSLSPGERATLSCRASQSVSSSYLAWYQQKPGQAPRLLIYDASNRATGIPARFSGSGSGTDFTLTISSLEPEDFATYYCQQYNSYPYTFGQGTKLEIKR
notes: also called P1-068748-6

7.4 KD/ 6.0 KD (hVISTA-ECD 6-His tag [1]): 12.6 | 7.4 kd/ 6.0 kd (hVISTA-ECD 6-His tag [2]): 7.9 | Kd (hVISTA-ECD 6-His tag [8]): 20 nM | koff (hVISTA-ECD 6-His tag [8]): 0.0046 s⁻¹ | kon (hVISTA-ECD 6-His tag [8]): 230000 M⁻¹ s⁻¹ | 7.4 kd/ 6.0 kd (hVISTA-ECD 6-His tag [3]): 3.2 | Kd (hVISTA-ECD 6-His tag [4]): 4800 nM | koff (hVISTA-ECD 6-His tag [4]): 0.034 s⁻¹ | kon (hVISTA-ECD 6-His tag [4]): 7100 M⁻¹ s⁻¹ | Kd (hVISTA-ECD 6-His tag [5]): 64 nM | koff (hVISTA-ECD 6-His tag [5]): 0.014 s⁻¹ | kon (hVISTA-ECD 6-His tag [5]): 220000 M⁻¹ s⁻¹ | 7.4 KD/ 6.0 KD (hVISTA-ECD 6-His tag [6]): 958 | Kd (hVISTA-ECD 6-His tag [7]): 5.1 nM | koff (hVISTA-ECD 6-His tag [7]): 0.0043 s⁻¹ | kon (hVISTA-ECD 6-His tag [7]): 860000 M⁻¹ s⁻¹ | Kd (hVISTA-ECD 6-His tag [9]): 1100 nM | koff (hVISTA-ECD 6-His tag [9]): 0.036 s⁻¹ | kon (hVISTA-ECD 6-His tag [9]): 35000 M⁻¹ s⁻¹
B5: P1-068744 (antibody, human IgG1, kappa, V domains shown)
VH: B4 VH with H31E, H32Y, I50H, D58K, D59Y, Y60E, D104E, Y110E
VL: B4 VL
notes: also called P1-068744-7

The remaining lines, values behind:

B1: P1-061520 (41F11 VK_A64G) (antibody, V domains shown)
VH: B2 VH with P28T, W50Y, E56S, H99D, E100L, E101P, E104Y
VL: B2 VL
notes: also called P1-061520-21; VISTA.4.A64G
7.4 KD/ 6.0 KD (hVISTA-ECD 6-His tag [1]): 0.3 | 7.4 kd/ 6.0 kd (hVISTA-ECD 6-His tag [2]): 0 | 7.4 kd/ 6.0 kd (hVISTA-ECD 6-His tag [3]): 0.2 | Kd (hVISTA-ECD 6-His tag [4]): 2.15 nM | koff (hVISTA-ECD 6-His tag [4]): 0.00139 s⁻¹ | kon (hVISTA-ECD 6-His tag [4]): 646000 M⁻¹ s⁻¹ | Kd (hVISTA-ECD 6-His tag [5]): 5.69 nM | koff (hVISTA-ECD 6-His tag [5]): 0.00554 s⁻¹ | kon (hVISTA-ECD 6-His tag [5]): 975000 M⁻¹ s⁻¹ | 7.4 KD/ 6.0 KD (hVISTA-ECD 6-His tag [6]): 0.1 | Kd (hVISTA-ECD 6-His tag [7]): 16.8 nM | koff (hVISTA-ECD 6-His tag [7]): 0.0323 s⁻¹ | kon (hVISTA-ECD 6-His tag [7]): 1.93e+06 M⁻¹ s⁻¹

B3: P1-061015 (antibody, human IgG1, kappa, V domains shown)
VH: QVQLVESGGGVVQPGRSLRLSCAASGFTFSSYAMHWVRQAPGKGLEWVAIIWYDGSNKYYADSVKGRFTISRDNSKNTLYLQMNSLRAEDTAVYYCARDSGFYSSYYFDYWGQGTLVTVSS
VL: B4 VL
notes: also called P1-061015.IgG1.3
7.4 KD/ 6.0 KD (hVISTA-ECD 6-His tag [1]): 2.9 | 7.4 kd/ 6.0 kd (hVISTA-ECD 6-His tag [2]): 0.9 | Kd (hVISTA-ECD 6-His tag [8]): 1.9 nM | koff (hVISTA-ECD 6-His tag [8]): 0.0016 s⁻¹ | kon (hVISTA-ECD 6-His tag [8]): 830000 M⁻¹ s⁻¹ | 7.4 kd/ 6.0 kd (hVISTA-ECD 6-His tag [3]): 1 | Kd (hVISTA-ECD 6-His tag [4]): 3.19 nM | koff (hVISTA-ECD 6-His tag [4]): 0.00133 s⁻¹ | kon (hVISTA-ECD 6-His tag [4]): 417000 M⁻¹ s⁻¹ | Kd (hVISTA-ECD 6-His tag [5]): 1.83 nM | koff (hVISTA-ECD 6-His tag [5]): 0.00147 s⁻¹ | kon (hVISTA-ECD 6-His tag [5]): 803000 M⁻¹ s⁻¹ | 7.4 KD/ 6.0 KD (hVISTA-ECD 6-His tag [6]): 5.1 | Kd (hVISTA-ECD 6-His tag [7]): 0.622 nM | koff (hVISTA-ECD 6-His tag [7]): 0.00154 s⁻¹ | kon (hVISTA-ECD 6-His tag [7]): 2.47e+06 M⁻¹ s⁻¹ | Kd (hVISTA-ECD 6-His tag [9]): 6.4 nM | koff (hVISTA-ECD 6-His tag [9]): 0.0022 s⁻¹ | kon (hVISTA-ECD 6-His tag [9]): 340000 M⁻¹ s⁻¹

B6: P1-068767.IgG1.3 (antibody, V domains shown)
VH: EVQLVESGGGLVQPGKSLRLSCAASGFTLEDYAMHWVRQAPGKGLEWVSGIDWNSENIGYADSVKGRFTISRDNAKNSLYLQMNSLRTEDTALYYCAKVPGYSGGWIDAEDDWGQGTMVTVSS
VL: not shown
notes: IgG1.3; also called P1-068767-22; P1-068767 hIgG1.3f
binding result [10]: no binding (tested: 10 RU; analyte 100-10 nM) | binding result [11]: no binding (tested: 10 RU; analyte 100-10 nM)

Reference: patent US20230192860A1 (Bristol-Myers Squibb, published 2023)
